Laboratory results from publication doi:10.1101/2022.08.25.505315 (bioRxiv, 2022).

Target: the molecule itself
Assay: SEC

B1: human malic enzyme 3 (mitochondrial NADP+-dependent malic enzyme 3), residues 46-604 (enzyme, UniProt Q16798 46-604, looked up)
chain: LKKRGYDVTRNPHLNKGMAFTLEERLQLGIHGLIPPCFLSQDVQLLRIMRYYERQQSDLDKYIILMTLQDRNEKLFYRVLTSDVEKFMPIVYTPTVGLACQHYGLTFRRPRGLFITIHDKGHLATMLNSWPEDNIKAVVVTDGERILGLGDLGCYGMGIPVGKLALYTACGGVNPQQCLPVLLDVGTNNEELLRDPLYIGLKHQRVHGKAYDDLLDEFMQAVTDKFGINCLIQFEDFANANAFRLLNKYRNKYCMFNDDIQGTASVAVAGILAALRITKNKLSNHVFVFQGAGEAAMGIAHLLVMALEKEGVPKAEATRKIWMVDSKGLIVKGRSHLNHEKEMFAQDHPEVNSLEEVVRLVKPTAIIGVAAIAGAFTEQILRDMASFHERPIIFALSNPTSKAECTAEKCYRVTEGRGIFASGSPFKSVTLEDGKTFIPGQGNNAYVFPGVALGVIAGGIRHIPDEIFLLTAEQIAQEVSEQHLSQGRLYPPLSTIRDVSLRIAIKVLDYAYKHNLASYYPEPKDKEAFVRSLVYTPDYDSFTLDSYTWPKEAMNVQTV
  stoichiometry N: 4
